Data published in patent US20190016812A1.

Biological target: human TNFSF9 (R&D Systems; #2295-4L-025/CF) (human) (UniProt P41273)
Test: MSD ELISA: TNFSF9 + 1 ug/mL antibody, binding to coated TNFRSF9

human TNFSF9 (R&D Systems; #2295-4L-025/CF) (human), sequence (P41273 71-254 limits assumed): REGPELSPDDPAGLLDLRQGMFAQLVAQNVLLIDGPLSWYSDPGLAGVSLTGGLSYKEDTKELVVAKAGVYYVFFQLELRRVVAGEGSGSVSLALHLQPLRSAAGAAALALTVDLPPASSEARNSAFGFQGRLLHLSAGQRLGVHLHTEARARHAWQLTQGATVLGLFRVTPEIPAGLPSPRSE

Binder | % inhibition of ligand receptor interaction [%]
SC113.119 (antibody, V domains shown) VH: QVQLQQSGTELARPGASVRLSCKASGYTFTSYGLSWVKQRTGQGLEWIGEIFPGSGNSNYNENFKGKATLTADKSSSTAYMQVSSLSSEDSVVYFCARGGFDFWGQGTSLTVSS VL: DIQMTQSPSSLSASLGERVSLTCRASQEITGYLSWLQQKPDGTIKRLIYAASTLDSGVPKRFSGSRSGSDYSLTISSLESEDFADYYCLQYARYPPTFGGGTKLEIK | -8
SC113.118 (antibody, V domains shown) VH: QVQLQQSGTELARPGASVKLSCKASGYTFTSYGLSWVKQRTGQGLEWIGEIFPGSGNSNYNENFKGKATLTADKSSSTAYMQLSSLTSDDSVVYFCARGGFDYWGQGTTLTVSS VL: DIQMTQSPSSLSASLGERVSLTCRASQEISGFLSWLQQKPDGTIKRLIYAASTLDSGVPKRFSGSRSGSDYSLTISSLESEDFADYYCLQYARYPPTFGGGTKLEIK | 3
SC113.172 (antibody, V domains shown) VH: QGHLQQSGAELMKPGASVKISCKATGYTFSSYWIEWVKQRPGHGLEWIGEILPGSGSTHYNEKFKGKATFTADTSSNTAYMQLISLTSEDSAVYYCARRDAMDYWGQGTSVTVSS VL: DIVMTQSPSSLTVTPGEKVTMSCKSSQSLLTSGNQKNYLTWYQQQPGQPPKLLIYWASTRESGVPDRFTGSGSGTDFTLTISSVQAEDLAVYYCQNDYSYPYTFGGGTKLEIK | -3

Further lines, results first:

% inhibition of ligand receptor interaction [%] | Binder
8 | SC113.190 (antibody, V domains shown) VH: QVQLQQPGAELVKPGASVKLSCKASGYTFTTYYMYWVKQRPGQGLEWIGGINPSNGDTDFNEKFKSKATLTVDKSSSTVYMQLSSLTPEDSAVYFCTSAGYTSWFAYWGQGTLVTVSA VL: QIVLTQSPALMSASPGEKVTMTCSASSSVSYMNWYQQKPRSSPKPWIYLTSHLASGVPARFSGSGSGTSYSLTISSMEAEDAATYYCQQWSSKPPTFGSGTKLEIK
-2 | SC113.187 (antibody, V domains shown) VH: QVQLQQSGAELAKPGASVKMSCKASGYTFTSYWMYWVKQRPGQGLEWIGYINPSTGYTEYNQKFKDKATLTADKSSSTAYMQLNSLTSEDSAVYYCARSGYYGSSSLAYWGQGTLVTVSA VL: NIVLTQSPASLAVSLGQRATISCRASESVDSYGNSFMHWYQQKPGQPPKLLIYLASNLESGVPARFSGSGSRTDFTLTIDPVEADDAATYYCQQNNEDPWTFGGGTKLEIK
